According to patent US20160264649A1:

Key:
Assay in all cases: cell-based or functional assay
[1] = target: HIV-1 92RW008 Env (HIV-1)
[2] = target: HIV-1 92TH021 Env (HIV-1)
[3] = target: HIV-1 92UG031 Env (HIV-1)
[4] = target: HIV-1 92UG037 Env (HIV-1)
[5] = target: HIV-1 92WR009 Env (HIV-1)
[6] = target: HIV-1 92WR020 Env (HIV-1)
[7] = target: HIV-1 92WR021 Env (HIV-1)
[8] = target: HIV-1 92WR024 Env (HIV-1)
[9] = target: HIV-1 92WR026 Env (HIV-1)
[10] = target: HIV-1 93UG077 Env (HIV-1)
[11] = target: HIV-1 93WR029 Env (HIV-1)
[12] = target: HIV-1 94KE105 Env (HIV-1)
[13] = target: HIV-1 94UG103 Env (HIV-1)
HIV-1 CMU02 Env (HIV-1) = target: HIV-1 CMU02 Env (HIV-1)
[14] = target: HIV-1 Env of isolate MG RM-C-019 (subtype C) (HIV-1)
[15] = target: HIV-1 Env of isolate MG RM-C-020 (subtype C) (HIV-1)
[16] = target: HIV-1 Env of isolate MG RM-C-022 (subtype C) (HIV-1)
[17] = target: HIV-1 Env of isolate MG RM-C-023 (subtype C) (HIV-1)
[18] = target: HIV-1 Env of isolate MG RM-C-024 (subtype C) (HIV-1)
[19] = target: HIV-1 Env of isolate MG RM-C-025 (subtype C) (HIV-1)
[20] = target: HIV-1 Env of isolate MG RM-C-026 (subtype C) (HIV-1)
[21] = target: HIV-1 Env of isolate MG RM-C-027 (subtype C) (HIV-1)
[22] = target: HIV-1 Env of isolate MG RM-C-028 (subtype C) (HIV-1)
[23] = target: HIV-1 MGRM-A-001 Env (HIV-1)
[24] = target: HIV-1 MGRM-A-002 Env (HIV-1)
[25] = target: HIV-1 MGRM-A-003 Env (HIV-1)
[26] = target: HIV-1 MGRM-A-004 Env (HIV-1)
[27] = target: HIV-1 MGRM-A-005 Env (HIV-1)
[28] = target: HIV-1 MGRM-A-006 Env (HIV-1)
[29] = target: HIV-1 MGRM-A-007 Env (HIV-1)
[30] = target: HIV-1 MGRM-A-008 Env (HIV-1)
[31] = target: HIV-1 MGRM-A-009 Env (HIV-1)
[32] = target: HIV-1 MGRM-A-010 Env (HIV-1)
[33] = target: HIV-1 MGRM-A-011 Env (HIV-1)
[34] = target: HIV-1 MGRM-A-012 Env (HIV-1)
[35] = target: HIV-1 MGRM-A-013 Env (HIV-1)
[36] = target: HIV-1 MGRM-A-014 Env (HIV-1)
[37] = target: HIV-1 MGRM-AE-001 Env (HIV-1)
[38] = target: HIV-1 MGRM-AE-002 Env (HIV-1)
[39] = target: HIV-1 MGRM-AE-003 Env (HIV-1)
[40] = target: HIV-1 MGRM-AE-004 Env (HIV-1)
[41] = target: HIV-1 MGRM-AE-005 Env (HIV-1)
[42] = target: HIV-1 MGRM-AE-006 Env (HIV-1)
[43] = target: HIV-1 MGRM-AE-007 Env (HIV-1)
[44] = target: HIV-1 MGRM-AE-008 Env (HIV-1)
[45] = target: HIV-1 MGRM-AG-001 Env (HIV-1)
[46] = target: HIV-1 MGRM-AG-002 Env (HIV-1)
[47] = target: HIV-1 MGRM-AG-003 Env (HIV-1)
[48] = target: HIV-1 MGRM-AG-005 Env (HIV-1)
[49] = target: HIV-1 MGRM-AG-006 Env (HIV-1)
[50] = target: HIV-1 MGRM-AG-008 Env (HIV-1)
[51] = target: HIV-1 MGRM-AG-009 Env (HIV-1)
[52] = target: HIV-1 MGRM-AG-011 Env (HIV-1)
[53] = target: HIV-1 MGRM-AG-012 Env (HIV-1)
[54] = target: HIV-1 MGRM-AG-013 Env (HIV-1)
HIV-1 VLGCA1 Env (HIV-1) = target: HIV-1 VLGCA1 Env (HIV-1)
[55] = target: HIV-1 Env of isolate 6535.3 (HIV-1)
[56] = target: HIV-1 Env of isolate 92 BR 020 (HIV-1)
[57] = target: HIV-1 Env of isolate 93IN905 (HIV-1)
[58] = target: HIV-1 Env of isolate 93MW959 (HIV-1)
[59] = target: HIV-1 Env of isolate 93TH305 (HIV-1)
[60] = target: HIV-1 Env of isolate 97ZA012 (HIV-1)
[61] = target: HIV-1 Env of isolate 98IN022 (HIV-1)
[62] = target: HIV-1 Env of isolate APV_13 (HIV-1)
[63] = target: HIV-1 Env of isolate APV_17 (HIV-1)
[64] = target: HIV-1 Env of isolate APV_6 (HIV-1)
[65] = target: HIV-1 Env of isolate CAAN.A2 (HIV-1)
[66] = target: HIV-1 Env of isolate JRCSF (HIV-1) (UniProt P20871)
[67] = target: HIV-1 Env of isolate JRFL (HIV-1)
[68] = target: HIV-1 Env of isolate MGRM-Chronic-B-001 (HIV-1)
[69] = target: HIV-1 Env of isolate MGRM-Chronic-B-002 (HIV-1)
[70] = target: HIV-1 Env of isolate MGRM-Chronic-B-003 (HIV-1)
[71] = target: HIV-1 Env of isolate MGRM-Chronic-B-004 (HIV-1)
[72] = target: HIV-1 Env of isolate MGRM-Chronic-B-008 (HIV-1)
[73] = target: HIV-1 Env of isolate MGRM-Chronic-B-010 (HIV-1)
[74] = target: HIV-1 Env of isolate MGRM-Chronic-B-011 (HIV-1)
[75] = target: HIV-1 Env of isolate MGRM-Chronic-B-012 (HIV-1)
[76] = target: HIV-1 Env of isolate MGRM-Chronic-B-017 (HIV-1)
[77] = target: HIV-1 Env of isolate MGRM-Chronic-B-018 (HIV-1)
[78] = target: HIV-1 Env of isolate MGRM-Chronic-B-020 (HIV-1)
[79] = target: HIV-1 Env of isolate MGRM-Chronic-B-023 (HIV-1)
[80] = target: HIV-1 Env of isolate MGRM-Chronic-B-024 (HIV-1)
[81] = target: HIV-1 Env of isolate NL43 (HIV-1)
[82] = target: HIV-1 Env of isolate PVO.4 (HIV-1)
[83] = target: HIV-1 Env of isolate QH0692.42 (HIV-1)
[84] = target: HIV-1 Env of isolate SC422661.8 (HIV-1)
[85] = target: HIV-1 Env of isolate SF162 (HIV-1) (UniProt P19550)
[86] = target: HIV-1 Env of isolate THR0.18 (HIV-1)
[87] = target: HIV-1 Env of isolate TRJ04551.58 (HIV-1)
[88] = target: HIV-1 Env of isolate TRO.11 (HIV-1)
[89] = target: HIV-1 Env of isolate VLGCB3 (HIV-1)

5345_I01 (PGT-137) (antibody), sequence (VH): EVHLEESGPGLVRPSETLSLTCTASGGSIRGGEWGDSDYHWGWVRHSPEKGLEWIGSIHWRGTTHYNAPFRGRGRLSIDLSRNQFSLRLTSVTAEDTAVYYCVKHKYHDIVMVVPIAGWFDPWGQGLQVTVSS
5345_I01 (PGT-137) (antibody), sequence (VL): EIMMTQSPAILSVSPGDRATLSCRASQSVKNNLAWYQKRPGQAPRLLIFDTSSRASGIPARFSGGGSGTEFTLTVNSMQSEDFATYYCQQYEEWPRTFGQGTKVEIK

5345_I01 (PGT-137) (antibody) was tested, and the IC50 [1] was 0.148 µg/mL, the IC50 [2] was greater than 50 µg/mL and the IC50 [3] was greater than 50 µg/mL. The IC50 [4] was greater than 50 µg/mL, the IC50 [5] was greater than 50 µg/mL and the IC50 [6] was 0.005 µg/mL. The IC50 [7] was 3.52 µg/mL, the IC50 [8] was greater than 50 µg/mL and the IC50 [9] was 0.092 µg/mL. For the same substance, the IC50 [10] was greater than 50 µg/mL, the IC50 [11] was greater than 50 µg/mL and the IC50 [12] was 18.5 µg/mL. It also gave an IC50 [13] greater than 50 µg/mL, an IC50 (HIV-1 CMU02 Env (HIV-1)) greater than 50 µg/mL and an IC50 [14] greater than 50 µg/mL. For the same substance, the IC50 [15] was greater than 50 µg/mL, the IC50 [16] was greater than 50 µg/mL and the IC50 [17] was 0.23 µg/mL. For the same substance, the IC50 [18] was greater than 50 µg/mL, the IC50 [19] was greater than 50 µg/mL and the IC50 [20] was 0.011 µg/mL. The IC50 [21] was greater than 50 µg/mL, the IC50 [22] was greater than 50 µg/mL and the IC50 [23] was greater than 50 µg/mL. The IC50 [24] was greater than 50 µg/mL, the IC50 [25] was greater than 50 µg/mL and the IC50 [26] was greater than 50 µg/mL. For the same substance, the IC50 [27] was greater than 50 µg/mL, the IC50 [28] was greater than 50 µg/mL and the IC50 [29] was greater than 50 µg/mL. It also gave an IC50 [30] greater than 50 µg/mL, an IC50 [31] greater than 50 µg/mL and an IC50 [32] greater than 50 µg/mL. The IC50 [33] was greater than 50 µg/mL, the IC50 [34] was greater than 50 µg/mL and the IC50 [35] was 49.2 µg/mL. It also gave an IC50 [36] of 18.6 µg/mL, an IC50 [37] greater than 50 µg/mL and an IC50 [38] greater than 50 µg/mL. The IC50 [39] was greater than 50 µg/mL, the IC50 [40] was greater than 50 µg/mL and the IC50 [41] was greater than 50 µg/mL. For the same substance, the IC50 [42] was greater than 50 µg/mL, the IC50 [43] was greater than 50 µg/mL and the IC50 [44] was greater than 50 µg/mL. For the same substance, the IC50 [45] was greater than 50 µg/mL, the IC50 [46] was greater than 50 µg/mL and the IC50 [47] was greater than 50 µg/mL. The IC50 [48] was greater than 50 µg/mL, the IC50 [49] was 28.3 µg/mL and the IC50 [50] was greater than 50 µg/mL. The IC50 [51] was greater than 50 µg/mL, the IC50 [52] was greater than 50 µg/mL and the IC50 [53] was greater than 50 µg/mL. The IC50 [54] was greater than 50 µg/mL and the IC50 (HIV-1 VLGCA1 Env (HIV-1)) was greater than 50 µg/mL.
PGT-128 monoclonal antibody (5114_A19) showed a neutralization IC50 [55] of 0.011 µg/mL, a neutralization IC50 [56] of 0.009 µg/mL and a neutralization IC50 [57] of 0.009 µg/mL. It also gave a neutralization IC50 [58] of 0.045 µg/mL, a neutralization IC50 [59] of 0.006 µg/mL and a neutralization IC50 [60] of 0.019 µg/mL. It also gave a neutralization IC50 [61] of 0.014 µg/mL, a neutralization IC50 [62] of 0.008 µg/mL and a neutralization IC50 [63] of 0.016 µg/mL. For the same substance, the neutralization IC50 [64] was 0.007 µg/mL, the neutralization IC50 [65] was 1.48 µg/mL and the neutralization IC50 [66] was 0.003 µg/mL. It also gave a neutralization IC50 [67] of 0.007 µg/mL, a neutralization IC50 [68] greater than 50 µg/mL and a neutralization IC50 [69] of 0.036 µg/mL. For the same substance, the neutralization IC50 [70] was 0.007 µg/mL, the neutralization IC50 [71] was 0.009 µg/mL and the neutralization IC50 [72] was 0.143 µg/mL. It also gave a neutralization IC50 [73] of 0.004 µg/mL, a neutralization IC50 [74] of 0.02 µg/mL and a neutralization IC50 [75] of 0.026 µg/mL. It also gave a neutralization IC50 [76] greater than 50 µg/mL, a neutralization IC50 [77] of 0.02 µg/mL and a neutralization IC50 [78] of 0.007 µg/mL. It also gave a neutralization IC50 [79] greater than 50 µg/mL, a neutralization IC50 [80] greater than 50 µg/mL and a neutralization IC50 [81] greater than 50 µg/mL. The neutralization IC50 [82] was 0.005 µg/mL, the neutralization IC50 [83] was 0.029 µg/mL and the neutralization IC50 [84] was 1.58 µg/mL. For the same substance, the neutralization IC50 [85] was 0.007 µg/mL, the neutralization IC50 [86] was greater than 50 µg/mL and the neutralization IC50 [87] was 0.019 µg/mL. The neutralization IC50 [88] was 0.018 µg/mL and the neutralization IC50 [89] was 0.012 µg/mL.
